Source: publication PMC3800664

What was measured:
[1] = biological target: GST-TKJMΔ (intracellular domain of the EGFR lacking the first 13 amino acids of the juxtamembrane region, fused to glutathione S-transferase); test: cross-linking; total protein extracts of E. coli treated with BS3 or glutaraldehyde, western blot with anti-GST antibody; control without cross-linking agent
[2] = biological target: glutathione S-transferase (GST); test: as above

Chain of glutathione S-transferase (GST) (P08515 2-218): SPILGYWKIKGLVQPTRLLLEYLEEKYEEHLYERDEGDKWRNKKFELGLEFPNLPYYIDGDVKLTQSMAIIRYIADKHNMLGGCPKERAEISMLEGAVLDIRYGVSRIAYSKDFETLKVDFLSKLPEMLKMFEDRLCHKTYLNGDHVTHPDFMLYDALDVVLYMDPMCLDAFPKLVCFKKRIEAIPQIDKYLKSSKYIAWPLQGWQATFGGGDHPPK

| Substance | stoichiometry N [1] | stoichiometry N [2] |
| --- | --- | --- |
| GST-TKJMΔ (intracellular domain of the EGFR lacking the first 13 amino acids of the juxtamembrane region, fused to glutathione S-transferase) (domain or fragment) | 2 | – |
| glutathione S-transferase (GST) (natural protein) | – | 2 |
